According to the nanobody polyreactivity screen of Harvey et al. (2022):

Test: yeast display, Sf9 membrane polyspecificity reagent, FACS + sequencing; frameworks hold sequencing errors
How it was run: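 Nanobodies from a synthetic yeast display library (Saccharomyces cerevisiae BJ5465), induced 36–48 hours with galactose, were stained 1 hour at 4 °C with 10% biotinylated, detergent-solubilized Sf9 membrane reagent, enriched on streptavidin microbeads, then FACS-sorted. Anti-HA (expression) and streptavidin (reagent binding) fluorescence set low and high (top ~1%) gates. Polyreactivity labels come from the gate of origin. Genes were colony-PCR amplified, MiSeq 2 × 250 sequenced and filtered by CDR length.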

Sequence	polyreactivity (PSR sort gate)
QVQLVESGGGLVQAGGSLRLRCAASGSIFKRYAMGWYRQAPGKERELVAAISWGGGRTYYADSVKGRFTISRDTAKNTVYLQMNSLKPEDTAVYYCNRVGSYGQSNSYQGGDYWGQGTQVTVSS	high polyreactivity
QVQLVESGGGLVQAGGSLRLRCAASGSIFKTYAMGWYRQAPRKERELVAAITTSGGRTYYADSVKGRFTISRDNAKYTVYLQMNSLKPEDTAVYYCNADLFPGYVSYPEYDYWGQGTQVTVSS	low polyreactivity
QVQLVESGGGLVQAGGSLRLRCAASGSIFNSYAMGWSRQAPGKERELVAAISIRGTRTYYADSVKGRFTISRDNAKNTVYLQMNSLKPEDTAVYYCAADASYTEGMDYWGQGTQVTVSS	high polyreactivity
QVQLVESGGGLVQAGGSLRLRCAASGSIFSRNAMGWYRQAPGKERELVAAISGRGGSTYYADSVKGRFTISRDNAMNTVYLQMNRLKPEDTAVYYCAKAVIYRLSEAMDYWGQGSQVTVSS	high polyreactivity
QVQLVESGGGLVQAGGSLRLRCAASGSILPWYAMGWYRHAPGKERELVAVITSDGGTNYADSVKGRFTISRDNSKNTVYLQMNSLKPEDTAVYYCAADRFSQSGFDSWGQGTQVTVSS	low polyreactivity
QVQLVESGGGLVQAGGSLRLRCAASGSNFDTYAMGWYRQAPGKERELDAAINSGGGTNYADSVKGRFTISRDNANNTVYLQMNSLKPEDTAVYYCATDIRREAGGGDFDYWGQATQVTVSS	low polyreactivity
QVQLVESGGGLVQAGGSLRLRCAASGSNFKHNDMGWSRPAPGKERELVAAISRSGGSTYYADSVKGRFTISRDNGKNTVYLPMNSLKPEDTAVYYCNAGRRTGRYGYWGQGTQVTVSS	high polyreactivity
QVQLVESGGGLVQAGGSLRLRCAASGSTCWFSAMGWSRQATGTERELVATITIGARTYADSVKGRCTISRDNPKTTVYVQMNSLKPEETAVYYCAARRRRLEYDYGRNDYWGQGTQVTVTS	low polyreactivity
QVQLVESGGGLVQAGGSLRLRCAASGSTFASYAMGGYRQAPGKERELVAAITRSGGSTYYADSVKGRFTISRVKAKNTVYLQMNSLKPEDTAVYYCARRAVYGIFDYWGQGTQVTVSS	high polyreactivity
QVQLVESGGGLVQAGGSLRLRCAASGSTFDSYAMGWYRQAPGKERELVAAITTTGGSTFYADSVKGRFTISRDYAKNTVYLQMNSLKPEDTAVYYCAADDGWQEFEYWGQGTQVTVSS	low polyreactivity
QVQLVESGGGLVQAGGSLRLRCAASGSTFGGYAMGWYRQAPGKERELVAAISRRGGRTYYADSVKGRFRISRDNAKNTVYLQRNSLKPEDTAVYYSAADWSYVRYYYWGQGTQVTVSS	high polyreactivity
QVQLVESGGGLVQAGGSLRLRCAASGSTFGKNAMGWYRQAPGKERELVAAISKNGGSTYYADSVKGRFTISRDNAKNTVYILMNSLKPEDTAVYYCNTRRKNFVKSSQVEYWGQGTQVTVSS	high polyreactivity
QVQLVESGGGLVQAGGSLRLRCAASGSTFGLYTMGWYSQAPGKERELVASISIVGSTYYADSVKGLFTSSRDNAKNTVYFQMNSLKPVDTAVYYCAADSEIIYTVRNRTYPWIMDYWGQGTQVTVSS	low polyreactivity
QVQLVESGGGLVQAGGSLRLRCAASGSTFTSYTMGWYRQAPGKERELVARITRGGGSTYYADSVKGRFTISRDNAKNTVYLQMNSLKPEDTAVYYCAKQVVGRAYYSWGQGTQVTVSS	low polyreactivity
QVQLVESGGGLVQAGGSLRLRCAASGSTFYGNTMGWNRQAPGKERELVAAITWTGGRTYYADSVKGRFTISRDNAKNTVYLQMNSLIPEDTAVYYCARGASFYQKFYYWGQGTQVTVSS	high polyreactivity
QVQLVESGGGLVQAGGSLRLRCAASGSTFYGYVMGWYRQAPGQERELVAAITNRAGSTYYADSVKARFTISRDNAKNTVYVQMNSLKPEDTAVYYCNARRPAKSRYRHVYWGQVTQVTVSS	high polyreactivity
QVQLVESGGGLVQAGGSLRLRCAASGYNIQHYAMGWYRQAPGKERELVAAITSGGSTTYADSVKGRFTISRDNAKNTVYLQMNSLKPEDTAVYYCKALRRARYTRKGYEYWGQGTQVTVSS	high polyreactivity
QVQLVESGGGLVQAGGSLRLRCAASVRTFYTYAMGWYRQAPGKERELVAAISKRGTSTYYADSVKGRFTISRDNAKNTDYFQMNSLKPQDTAVYYCAAAVYQRARYYWGQGTQVTVSS	high polyreactivity
QVQLVESGGGLVQAGGSLRLRGAASGGILVGYAMGWYRQAPGKERELVAAINYSGGSTNYADSVKGRFTISRDNAKNTVYLQMNSLKPEDTAVYYCAARSTARYGYWGQGTQVTVSS	low polyreactivity
QVQLVESGGGLVQAGGSLRLRWDASGRILWYNAMGWYRQAPGKERELVAAIRSGGRTHYADSVKGRFTISRDNAKNTVYLQMNCLKPEDTAVYYCAARSVPYPYRRNPYDYWGQGTQVTVSS	high polyreactivity
QVQLVESGGGLVQAGGSLRLSCAAAGRTFYSYAMGWYRQAPGKEREFVAAINWSGTSTYADSVKGRFTISRDNAKNTVYLQMTSLKPEDTAVYYCAADLPAEYYHWGQGTQVTVSS	high polyreactivity
QVQLVESGGGLVQAGGSLRLSCAAAGRTVPRYTMGWYRQAPGKEMELVAAISRGGSTNYAYSVKGLFTISRDNAKNTVYLVMNSLKPEDTAVYYCNADYWYDWKSYDYWGEGTQVTVSS	high polyreactivity

Sequence	polyreactivity (PSR sort gate)
QVQLVESGGGLVQAGGSLRLSCAAAGSTFHRYVMGWYRQAPGQERELVAVINSTGGSTYYADSVKGRFTISRDNAKNTVYLQMKCLKPEDTAVYYCARVTRRGPGYSTLFSRYDYWGQGTQVTVSS	low polyreactivity
QVQLVESGGGLVQAGGSLRLSCAAARIFVYNAMGWYRQAPGKERELVATITSSGGITYYADSVKGRFTISRDNAKNTVYLQMKSLKPEDTAVYYCNKVRRYYYRTHNVYWGQGTQVTVSS	high polyreactivity
QVQLVESGGGLVQAGGSLRLSCAAARYAMGWYRQAPGKERELVAAISKSGGSTYYADSVKGRFTISRDNAKNTVYLQMNSLKPEDTAVYYCAARGHAGRGEYYYWGQGTQVTVSS	high polyreactivity
QVQLVESGGGLVQAGGSLRLSCAACGFTFWDYAMGWYSQAPGKERELVAAISDNDGSTDYADSVKGRFTISRDNAKNTVYLQMNSLKPEDSAVYYCNAEIELPSKEGDYWGQGTQVTVSS	low polyreactivity
QVQLVESGGGLVQAGGSLRLSCAACGIIFEYNAMGWYRQAPGKVRELVASIDSGGSTNYADSVKGRFTISRDNAKNTVYLQKNSLKPEDTAVYYCNADDTTVSPWYYYYQSYYWGQGTQVTVSS	low polyreactivity
QVQLVESGGGLVQAGGSLRLSCAACGRTFQHYAMGWYRQAPGKERELVAAISSGGRTYYADSVKGRFTISRDNAKNTVYLLMNSLKPEDTAVYYCAARYHGRDPRQIRYGYWGQGTQVNVSS	high polyreactivity
QVQLVESGGGLVQAGGSLRLSCAACGRTFWSYAMGWYLQAPGKERELVAAINSGGSTDYADSVKGRFTISRDNAKNTVYLQMNSLKPEDTAVYYCAADTWYGFDWGQGTQVTVSS	high polyreactivity
QVQLVESGGGLVQAGGSLRLSCAACGSIFYYYAMGWYRQAPGKERELVAAITVSGGRTYYADSVKGRFTISRDNAKNSVYLQMNSLKPEDTAVYYCAARRGRYSYYYWGQGTQVTVSS	high polyreactivity
QVQLVESGGGLVQAGGSLRLSCAACGSTFSPNAMGWYRQAPGKERELVAAISGSGASTYYADSVKGRFTISRDNAKNTVYLQMNSLKPEDTAVYYCAADKPGIFSRFDYWGQGTQVTVSS	low polyreactivity
QVQLVESGGGLVQAGGSLRLSCAACGSTFSVHAMGWYRQAPGKERELVAAISWGGTSTYYADSVKGRFTISRDNAKNTVYLQMNSLKPEDTAVYYCAAVSRGKVNTVYYWGQGTQVTVSS	high polyreactivity
QVQLVESGGGLVQAGGSLRLSCAADGFTFYVYAMGWYRQAPGKERELVADISRRGGSTYYADYVKGRFTISRDNEKNHVYLQMNSLKPEDTAVYYCAAQYYGGGTYWYRYGYWGQGTQVTLSS	high polyreactivity
QVQLVESGGGLVQAGGSLRLSCAAPGLTFWSYAMGWYRPAPGKERELVADITYRGGSTYYADSVKGRFTISRDNAKNTVYLQMNSLKPEDTAVYYCAARKKYRFDYWGQGTQVTVSS	high polyreactivity
QVQLVESGGGLVQAGGSLRLSCAAPGSIFGTNAMGWYRQAPGKERELVAAINWSGGTTYYADSVKGRFTISRDNAKNTVYLQMNSLKPEDTAVYYCATVFFVLPPTRFDSWGQGTQVTVSS	low polyreactivity
QVQLVESGGGLVQAGGSLRLSCAASAFTFKYNVMGWYRQAPGTERELLAAISKRGGNTYYADSVKGRFTISRDNAKNTVYLQMNSLKPEDTAVYYCAADPTSPETSGQGYDYWGQGTQVTVSS	high polyreactivity
QVQLVESGGGLVQAGGSLRLSCAASAFTFYTNAMGWYRQAPGKERELVAAISGGGSTKYADSVKGRFTISRDNAKNTVYLQMNSLKPEDTAVYYCAAQIKWGYRRNRHDYWGQGTQVTVSS	high polyreactivity
QVQLVESGGGLVQAGGSLRLSCAASAITVKRDVMGWYRQAPGKERELVAAISRTGGSTYYADSVKGRFTISRDNAKNTVYLQMNSLKPEDTAVYYCAAATCPGIYDYWGQGTQVTVSS	high polyreactivity
QVQLVESGGGLVQAGGSLRLSCAASALTFQAYTMGWYRQAPGKERELDAAISRNGGRTYYADSVKGRFTISRDNAKNTVYLQMNSLKPEDTAVYYCAAVHFVVSPGRGDDYWGQCTQVTVSS	high polyreactivity
QVQLVESGGGLVQAGGSLRLSCAASALTLRHYAMGWYRQAPGKERELVARIRISGRTYYADSVKGRFTISRDNAKNTVYLQMNSLKPEDTAVYYCAKVQFATSPPGLTLSYYYWGQGTQVTVSS	high polyreactivity
QVQLVESGGGLVQAGGSLRLSCAASANTFPTNAMGWYRQAPGKEMELVATISLGAGSTHYADSVKVRFTISRDNAKNTVYLQMNSLTPEDTAVYYCAARSRRWYDYDYWGQGTQVTVSS	low polyreactivity
QVQLVESGGGLVQAGGSLRLSCAASARIFRYYAMGWYRQAPGKERELVAGISWRGSSTYYADSVKGRFTISRDNAKNTVYLQMNSLKPEDTAVYYCNRDQSNIPVTGGRFYYWRQGTQVTVSS	high polyreactivity
QVQLVESGGGLVQAGGSLRLSCAASARTLAHYTMGWYRQAPGKERELVAAITFSGGRTYYADSVKGRFTISRDTAKNTVYLQMNSLKPEDTAVYYCNADGYWVVPLDDSYEYWGQGTQVTVSS	low polyreactivity
